Results as given in paper PMC10907589, “CD8^+ T cell priming that is required for curative intratumorally anchored anti-4-1BB immunotherapy is constrained by Tregs” (Nature Communications, 2024).

T1: murine 4-1BB (murine, UniProt P20334 24-256)
T1 chain: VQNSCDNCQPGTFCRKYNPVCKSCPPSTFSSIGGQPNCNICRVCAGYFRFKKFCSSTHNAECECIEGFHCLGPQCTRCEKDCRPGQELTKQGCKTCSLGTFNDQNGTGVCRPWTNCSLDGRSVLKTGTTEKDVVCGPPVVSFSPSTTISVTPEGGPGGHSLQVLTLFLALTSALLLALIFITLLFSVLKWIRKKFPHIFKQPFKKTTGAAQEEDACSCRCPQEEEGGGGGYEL


Experiments:
[1] = biological target: T1, murine 4-1BB; experiment: FACS
[2] = biological target: rat collagen I (rat, UniProt P02454 152-1207; P02466 86-1125); experiment: ELISA
[3] = biological target: T2, murine 4-1BB (Mus musculus, UniProt P20334); experiment: flow cytometry on cells; FreeStyle 293-F cells transiently transfected with murine 4-1BB, titrated with antibody for 3 h at 4 °C; detected with ɑmIgG1-APC; conditions: one partner purified
T2 construct: 4-1BB (CD137, TNFRSF9), murine; gene from OriGene cloned into pIRES2 (GFP downstream of an IRES site, not fused); also called CD137; TNFRSF9; source: FreeStyle 293-F, transiently transfected (pIRES2 vector), on cells

rat collagen I, sequence (P02454 152-1207, chain 1 of 2): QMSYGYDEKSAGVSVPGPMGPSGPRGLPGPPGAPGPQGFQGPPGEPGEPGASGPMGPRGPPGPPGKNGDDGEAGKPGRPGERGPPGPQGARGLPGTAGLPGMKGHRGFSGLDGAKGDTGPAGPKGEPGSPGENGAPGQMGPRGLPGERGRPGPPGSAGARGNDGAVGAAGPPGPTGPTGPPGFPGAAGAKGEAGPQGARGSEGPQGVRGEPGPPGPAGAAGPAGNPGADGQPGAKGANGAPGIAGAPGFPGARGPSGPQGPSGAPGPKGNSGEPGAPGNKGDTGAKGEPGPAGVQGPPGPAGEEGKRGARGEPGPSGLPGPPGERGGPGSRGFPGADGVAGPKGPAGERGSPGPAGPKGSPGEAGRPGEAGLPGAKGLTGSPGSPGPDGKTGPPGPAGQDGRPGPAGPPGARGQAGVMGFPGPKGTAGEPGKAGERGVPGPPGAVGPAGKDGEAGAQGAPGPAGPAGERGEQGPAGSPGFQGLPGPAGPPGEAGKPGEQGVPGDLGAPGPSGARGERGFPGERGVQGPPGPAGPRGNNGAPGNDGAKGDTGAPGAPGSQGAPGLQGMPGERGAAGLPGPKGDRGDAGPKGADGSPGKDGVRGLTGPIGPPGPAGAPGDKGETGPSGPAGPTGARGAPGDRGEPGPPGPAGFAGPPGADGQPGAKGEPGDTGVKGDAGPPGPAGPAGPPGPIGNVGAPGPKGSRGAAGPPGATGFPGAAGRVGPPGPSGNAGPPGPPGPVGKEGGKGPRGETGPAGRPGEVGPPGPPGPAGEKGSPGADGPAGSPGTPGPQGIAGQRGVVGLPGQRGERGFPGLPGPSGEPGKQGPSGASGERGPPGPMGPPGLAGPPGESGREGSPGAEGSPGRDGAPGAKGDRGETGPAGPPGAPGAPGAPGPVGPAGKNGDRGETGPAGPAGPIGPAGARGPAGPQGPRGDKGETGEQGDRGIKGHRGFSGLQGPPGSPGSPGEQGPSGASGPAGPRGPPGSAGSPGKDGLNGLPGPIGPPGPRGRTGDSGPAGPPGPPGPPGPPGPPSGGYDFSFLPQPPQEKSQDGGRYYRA
rat collagen I, sequence (P02466 86-1125, chain 2 of 2): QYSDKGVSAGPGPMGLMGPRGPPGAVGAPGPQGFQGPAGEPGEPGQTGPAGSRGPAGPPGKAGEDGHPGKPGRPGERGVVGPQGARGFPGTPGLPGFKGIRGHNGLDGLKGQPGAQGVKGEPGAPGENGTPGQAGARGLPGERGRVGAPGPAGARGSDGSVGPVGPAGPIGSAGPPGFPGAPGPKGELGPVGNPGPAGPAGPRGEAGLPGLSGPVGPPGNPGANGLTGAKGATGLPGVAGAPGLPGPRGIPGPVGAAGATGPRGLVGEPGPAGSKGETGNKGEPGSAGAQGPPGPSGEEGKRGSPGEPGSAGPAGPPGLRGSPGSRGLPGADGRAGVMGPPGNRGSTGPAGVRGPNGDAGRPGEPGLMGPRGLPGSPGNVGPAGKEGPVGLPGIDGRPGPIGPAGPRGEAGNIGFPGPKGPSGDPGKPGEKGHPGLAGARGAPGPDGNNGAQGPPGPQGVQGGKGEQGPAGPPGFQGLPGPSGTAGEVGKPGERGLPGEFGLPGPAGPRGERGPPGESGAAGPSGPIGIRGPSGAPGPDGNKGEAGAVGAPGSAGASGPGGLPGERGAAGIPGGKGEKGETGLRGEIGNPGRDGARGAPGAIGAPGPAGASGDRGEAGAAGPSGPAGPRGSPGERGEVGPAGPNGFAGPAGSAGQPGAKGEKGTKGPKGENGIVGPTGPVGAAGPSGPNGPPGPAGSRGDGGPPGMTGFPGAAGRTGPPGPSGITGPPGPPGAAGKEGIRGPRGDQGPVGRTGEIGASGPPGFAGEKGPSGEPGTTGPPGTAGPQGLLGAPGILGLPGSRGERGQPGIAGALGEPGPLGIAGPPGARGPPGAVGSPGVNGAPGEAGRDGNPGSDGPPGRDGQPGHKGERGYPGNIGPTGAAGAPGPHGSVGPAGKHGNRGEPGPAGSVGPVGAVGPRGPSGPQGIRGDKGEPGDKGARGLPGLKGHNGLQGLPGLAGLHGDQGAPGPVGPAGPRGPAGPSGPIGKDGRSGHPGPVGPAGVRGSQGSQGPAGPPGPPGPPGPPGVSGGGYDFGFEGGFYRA

| Kd [1] | Kd [2] | binding result [3] | Binder |
| --- | --- | --- | --- |
| 5.08 nM | 25 nM | binds | ɑ4-1BB-LAIR (ɑ4-1BB antibody clone LOB12.3 fused to the ectodomain of murine LAIR1) (antibody, V domains shown, heavy chain variable region of ɑ4-1BB clone LOB12.3; murine IgG1 heavy chain constant region; flexible (G4S)3 linker, written out from the printed formula; Leukocyte Associated Immunoglobulin Like Receptor 1 (LAIR1), murine, ectodomain; light chain variable region of ɑ4-1BB clone LOB12.3; murine kappa light chain constant region; Chimeric murine IgG1/kappa antibody; LAIR1 is fused to the …) VH: DVQLVESGGGLVQPGRSLKLSCAASGFIFSYFDMAWVRQAPTKGLEWVASISPDGSIPYYRDSVKGRFTVSRENAKSSLYLQMDSLRSEDTATYYCARRSYGGYSEIDYWGQGVMVTVSS VL: DIQMTQSPASLSASLEEIVTITCQASQDIGNWLAWYHQKPGKSPQLLIYGSTSLADGVPSRFSGSSSGSQYSLKISRLQVEDIGIYYCLQAYGAPWTFGGGTKLELK |
| 4.12 nM | – | binds | ɑ4-1BB antibody (clone LOB12.3), murine IgG1 chimera (antibody, V domains shown, heavy chain variable region of ɑ4-1BB clone LOB12.3, as in the heavy chain of m1; murine IgG1 heavy chain constant region; light chain variable region of ɑ4-1BB clone LOB12.3, as the light chain of m1; murine kappa light chain constant region; Chimeric murine IgG1/kappa antibody; light and heavy chain encoded in one cassette with a T2A peptide between them; also called α4-1BB; a4-1BB; source: …) VH: DVQLVESGGGLVQPGRSLKLSCAASGFIFSYFDMAWVRQAPTKGLEWVASISPDGSIPYYRDSVKGRFTVSRENAKSSLYLQMDSLRSEDTATYYCARRSYGGYSEIDYWGQGVMVTVSS VL: DIQMTQSPASLSASLEEIVTITCQASQDIGNWLAWYHQKPGKSPQLLIYGSTSLADGVPSRFSGSSSGSQYSLKISRLQVEDIGIYYCLQAYGAPWTFGGGTKLELK |
